# Measurements published in publication PMC6625990, “Structural underpinnings of Ric8A function as a G-protein α-subunit chaperone and guanine-nucleotide exchange factor” (Nature Communications, 2019).
# Substitutions are numbered along the chain they refer to. In names and notes the source's numbering stands. Several values for one entry are separate records, joined by “and”; a condition that tells them apart may be missing. Equal values may be shown once. No end group written: not given here. *: point of attachment. Biotin = O=C1N[C@H]2[C@H](CS[C@H]2CCCCC(=O)*)N1
# T1: GB1-Gαt340–350 (UniProt P04695 340-350)
# T1 construct: transducin-α (Gαt, Gαt1), the 11 C-terminal residues 340-350; Cloned into a modified pQE30 vector containing the GB1 tag; also called 11 C-terminal residues of Gαt fused to the B1 domain of Streptococcal protein G; source: E. coli BL21(DE3); purification not described
# T1 chain (looked up): IKENLKDCGLF
# T2: MBP-Gαt327–350 (UniProt P04695 327-350)
# T2 construct: In pET15b; also called 24 C-terminal residues of Gαt fused to MBP; tagged C-terminal fragment of Gα; source: E. coli BL21(DE3), purified (Ni-NTA, SEC); not shown: MBP (E. coli MBP28–394 with D110A/K111A/E200A/N201A/A243H/K247H/K267A, joined by an AAAH linker), N-terminal, kept
# T2 chain (looked up): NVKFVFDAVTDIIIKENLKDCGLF
# T3: Gαs363–380 (UniProt P63092-2 363-380)
# T3 construct: Gαs, C-terminal 18 residues 363-380; the numbers fit the 380-residue short form; also called peptide comprised of the C-terminal 18 residues of Gαs; Gαs C-terminal peptide
# T3 peptide (looked up): Biotin-NDCRDIIQRMHLRQYELL
# B1: bovine Ric8A1–492 (domain or fragment, UniProt Q5E9J8 1-492, looked up)
# chain: MEPRAVADALETGEEDVVMEALRAYNRENSQSFTFDDAQQEDRKRLAKLLVSVLEQGLPPSRRVIWLQSIRILSRDRSCLDSFTSRRSLQALACYAGISASQGSVPEPLNMDVVLESLKCLCNLVLSSPVAQALAAEAGLVVRLAERVGLCRQSSFPHDVQFFDLRLLFLLTALRTDVRQQLFQELQGVRLLTRALELTLGMTEGERHPELLPPQETERAMEILKVLFNITFDSIKREVDEEDAALYRHLGTLLRHCVMLAAAGDRTEELHGHAVNLLGNLPVKCLDVLLTLEPHEGSLEFLGVNMDVIRVLLSFMEKRLHQTHRLKESVAPVLSVLTECARMHRPARKFLKAQVLPPLRDVRTRPEVGELLRNKLVRLMTHLDTDVKRVAAEFLFVLCSESVPRFIKYTGYGNAAGLLAARGLMAGGRPEGQYSEDEDTDTDEYKEAKASINPVTGRVEEKPPNPMEGMTEEQKEHEAMKLVNMFDKLSRH
# B2: peptide C1 (peptide)
# peptide: Biotin-NDCRDIIQRMHLRQCGLF
# modifications: cysteine pairing not given here
# notes: Gαs C-terminal 18-mer without its last four residues; the numbers fit the 380-residue short form; the four C-terminal residues of Gαt; also called chimeric C-terminal peptide of Gαs ending in CGLF
# B3: peptide C2 (peptide)
# peptide: Biotin-NDCRDIIIRMNLRQCGLF
# modifications: cysteine pairing not given here
# notes: Gαs C-terminal 18-mer without its last four residues, with Q370I and H373N; the numbers fit the 380-residue short form; the four C-terminal residues of Gαt; Peptide C1 with two additional substitutions
# B4: Gαt333–350 (peptide, UniProt P04695 333-350, looked up)
# peptide: Biotin-DAVTDIIIKENLKDCGLF
# notes: also called 18-mer C-terminal peptide of Gαt; biotinylated Gαt333–350
# B5: Avi-tagged I340Q/N343H mutant of Gαt (natural protein)
# chain: MGAGASAEEKHSRELEKKLKEDAEKDARTVKLLLLGAGESGKSTIVKQMKIIHQDGYSLEECLEFIAIIYGNTLQSILAIVRAMTTLNIQYGDSARQDDARKLMHMADTIEEGTMPKEMSDIIQRLWKDSGIQACFDRASEYQLNDSAGYYLSDLERLVTPGYVPTEQDVLRSRVKTTGIIETQFSFKDLNFRMFDVGGQRSERKKWIHCFEGVTAIIFCVALSDYDLVLAEDEEMNRMHESMKLFDSICNNKWFTDTSIILFLNKKDLFEEKIKKSPLTICYPEYAGSNTYEEAGNYIKVQFLELNMRRDVKEIYSHMTCATDTQNVKFVFDAVTDIIQKEHLKDCGLF
# modifications: biotin on the Avi tag (cells grown in media supplemented with biotin)
# B6: full-length Avi-tagged Gαt (natural protein)
# chain: B5 chain with Q340I, H343N
# modifications: biotin on the Avi tag (cells grown in media supplemented with biotin)
# Key:
# Conditions in all cases: both partners purified
# GB1-Gαt340–350 = target: T1, GB1-Gαt340–350; assay: SEC; Ric8A1–492 mixed with GB1-Gαt340–350 or MBP-Gαt327–350; elution profiles
# MBP-Gαt327–350 = target: T2, MBP-Gαt327–350; assay: as above
# Gαt333–350 = target: B4; assay: differential scanning fluorimetry; Ric8A constructs at 0.5 mg/ml with or without 50 µM peptide, Sypro Orange, 20 mM Tris-HCl pH 7.5, 150 mM KCl, 5% glycerol, 1 mM TCEP
# Gαs363–380 = target: T3, Gαs363–380; assay: BLI; N-terminally biotinylated Gα peptides on streptavidin biosensors, Ric8A proteins in solution; Octet RED96, 26 °C, 20 mM Tris, 150 mM KCl, 5% glycerol, 1 mM TCEP, 0.5 mg/ml BSA, pH 8.0; kinetic fit (1:1 model) and steady-state fit (one site)
# bovine Ric8A1–492 [1] = target: B1; assay: as above
# bovine Ric8A1–492 [2] = target: B1; assay: BLI; full-length Avi-tagged Gαt on streptavidin biosensors, Ric8A1–492 proteins in solution; 26 °C, 20 mM Tris, 150 mM KCl, 5% glycerol, 1 mM TCEP, 0.5 mg/ml BSA, pH 8.0; steady-state fit
binder,measurement,setting,value
B1,stoichiometry N,GB1-Gαt340–350,~1
same,stoichiometry N,MBP-Gαt327–350,~1
same,shift of Tm,Gαt333–350,~9 °C
same,fold lower affinity than to Gαt333–350,Gαs363–380,~18 fold
B2,binding result,bovine Ric8A1–492 [1],binds
B3,binding result,bovine Ric8A1–492 [1],binds
B4,Kd,bovine Ric8A1–492 [1],240 nM and 280 nM and 270 nM
same,koff,bovine Ric8A1–492 [1],0.031 s⁻¹
same,kon,bovine Ric8A1–492 [1],130000 M⁻¹ s⁻¹
B5,Kd,bovine Ric8A1–492 [2],2300 nM
B6,Kd,bovine Ric8A1–492 [2],24 nM
